From article PMC3317874, “Palmitoylation and membrane cholesterol stabilize μ-opioid receptor homodimerization and G protein coupling” (BMC Cell Biology, 2012)
Where a chain is given by its changes, count along the chain named. Names may count otherwise. Values belong to the binder of their own block, whether it stands above or below them.

Key:
Assay in all cases: FRET or BRET; CFP and YFP constructs transiently transfected into HEK cells; normalized net FRET analysed on the cell membrane; also after 12 h of 0.5 μM simvastatin, simvastatin with 20 ng/ml cholesterol, or 50 μM 2-BP
[1] = target: T1, YFP-fused wild-type μ-opioid receptor (OPRM1) (rat), P33535; settings: remark: other sources report otherwise
T1 chain: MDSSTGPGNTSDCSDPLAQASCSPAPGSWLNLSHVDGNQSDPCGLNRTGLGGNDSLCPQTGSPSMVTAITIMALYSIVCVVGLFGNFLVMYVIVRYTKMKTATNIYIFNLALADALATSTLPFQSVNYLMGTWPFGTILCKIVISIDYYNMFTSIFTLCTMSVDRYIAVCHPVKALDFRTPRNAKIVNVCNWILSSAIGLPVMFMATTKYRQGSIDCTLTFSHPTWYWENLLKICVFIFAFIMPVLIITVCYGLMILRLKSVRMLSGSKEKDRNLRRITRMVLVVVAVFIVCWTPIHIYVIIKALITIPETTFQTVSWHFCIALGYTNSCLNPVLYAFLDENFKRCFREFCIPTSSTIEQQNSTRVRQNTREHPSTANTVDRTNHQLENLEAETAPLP

[2] = target: T2, YFP-fused C170A mutant of μ-opioid receptor (OPRM1) (rat, UniProt P33535 1-398, C170A); settings: partners not purified
T2 construct: μ-opioid receptor (OPRM1) with C3.55(170) mutated to alanine; also called YFPC170A; source: HEK cells, transiently transfected, in cells; not shown: YFP, C-terminal, kept

[3] = target: T3, YFP-fused wild-type μ-opioid receptor (OPRM1) (rat, UniProt P33535 1-398, palmitoylated at C3.55(170)); settings: partners not purified
T3 construct: μ-opioid receptor (OPRM1), wild type; also called YFPOPRM1; source: HEK cells, transiently transfected, in cells; not shown: YFP, C-terminal, kept

- normalized net FRET [1]: 0.49
B1: CFP-fused wild-type μ-opioid receptor (OPRM1), P33535 1-398 (receptor)
chain: T1 chain
modifications: here or on the partner: palmitoylated at C3.55(170); palmitoylated at C3.55(170)

- normalized net FRET [2]: 0.3
B2: CFP-fused wild-type μ-opioid receptor (OPRM1) (receptor, rat, UniProt P33535 1-398, looked up)
chain: T1 chain
modifications: palmitoylated at C3.55(170)
notes: μ-opioid receptor (OPRM1), wild type; also called CFPOPRM1; source: HEK cells (also HEKOPRM1 and HEKC170A cells), transiently transfected, in living or fixed cells; not shown: CFP, C-terminal, kept

- normalized net FRET [2]: 0.07
- normalized net FRET [3]: 0.27
B3: CFP-fused C170A mutant of μ-opioid receptor (OPRM1) (receptor, rat, UniProt P33535 1-398, looked up)
chain: T1 chain with C170A
notes: μ-opioid receptor (OPRM1) with C3.55(170) mutated to alanine; also called CFPC170A; source: HEK cells (also HEKOPRM1 and HEKC170A cells), transiently transfected, in cells; not shown: CFP, C-terminal, kept
